± gives the uncertainty stated by the source.
Assay: self-splicing fitness, log relative to wild type (ln ratio); higher = more splicing; Tetrahymena group I intron in knt gene, E. coli kanamycin selection, DiMSum; sequences stand for … in CUCUCU…GGAGGGAAAAGUUAUCAGGCAUGCACCUGGUAGCUAGUCUUUAAACCAAUAGAUUGCAUCGGUUUAAAAGGCAAGACCGUCAAAUUGCGGGAAAGGGGUCAACAGCCGUUCAGUACCAAGUCUCAGGGGAAACUUUGAGAUGGCCUUGCAAAGGGUAUGGUAAUAAGCUGACGGACAUGGUCCUAACCACGCAGCCAAGUCCUAAGUCAACAGAUCUUCUGUUGAUAUGGAUGCAGUUCACAGACUAAAUGUCGGUCGGGGAAGAUGUAUUCUUCUCAUAAGAUAUAGUCGGACCUCUCCUUAAUGGGAGCUAGCGGAUGAAGUGAUGCAACACUGGAGCCGCUGGGAACUAAUUUGUAUGCGAAAGUAUAUUGAUUAGUUUUGGAGUACUCGUGGUCG
Method in brief: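 DiMSum derived fitness as the error-weighted combination of fold changes across replicates, kanamycin versus no kanamycin, normalised to wild type. E. coli BL21(DE3) held the library, which randomised all eight P1ex-region intron nucleotides within the knt kanamycin-resistance gene on pET-22b(+). Six replicate transformations grew overnight at 37°C or 30°C on LB agar with or without 25 μg/mL kanamycin, also containing 100 μg/mL carbenicillin, 50 μM IPTG and 0.2% rhamnose, and pooled colonies were amplicon-sequenced on an Illumina HiSeq 2500.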

UCAAAGCAAUAUUACGCGGU
self-splicing fitness (ln) (30 °C): -2.75 ± 0.14 | self-splicing fitness (ln) (37 °C): -2.97 ± 0.16

UAAGAGCAAUAUUACGCAAG
self-splicing fitness (ln) (30 °C): -3.12 ± 0.44 | self-splicing fitness (ln) (37 °C): -1.51 ± 0.45

GGGUAGCAAUAUUACGGCGG
self-splicing fitness (ln) (30 °C): -2.35 ± 0.24 | self-splicing fitness (ln) (37 °C): -2.12 ± 0.28

GUAGAGCAAUAUUACGGAAU
self-splicing fitness (ln) (30 °C): -2.36 ± 0.084 | self-splicing fitness (ln) (37 °C): -1.18 ± 0.096

CAUGAGCAAUAUUACGAUGA
self-splicing fitness (ln) (30 °C): -3.5 ± 0.2 | self-splicing fitness (ln) (37 °C): -2.48 ± 0.15

ACAAAGCAAUAUUACGCAGA
self-splicing fitness (ln) (30 °C): -2.12 ± 0.14 | self-splicing fitness (ln) (37 °C): -1.06 ± 0.093

AGCUAGCAAUAUUACGGGAC
self-splicing fitness (ln) (30 °C): -3.37 ± 0.23 | self-splicing fitness (ln) (37 °C): -1.84 ± 0.24

UAAGAGCAAUAUUACGAGGG
self-splicing fitness (ln) (30 °C): -3.64 ± 0.14 | self-splicing fitness (ln) (37 °C): -2.53 ± 0.16

UGUUAGCAAUAUUACGCCCU
self-splicing fitness (ln) (30 °C): -0.0997 ± 0.17 | self-splicing fitness (ln) (37 °C): 0.532 ± 0.18

CGAAAGCAAUAUUACGGAAU
self-splicing fitness (ln) (30 °C): -3.69 ± 0.29 | self-splicing fitness (ln) (37 °C): -2.15 ± 0.49

CAGUAGCAAUAUUACGCGGU
self-splicing fitness (ln) (30 °C): -2.74 ± 0.12 | self-splicing fitness (ln) (37 °C): -2.94 ± 0.19

UUUGAGCAAUAUUACGGACA
self-splicing fitness (ln) (37 °C): -2.57 ± 0.48

GCGAAGCAAUAUUACGCUUA
self-splicing fitness (ln) (30 °C): -2.1 ± 0.21 | self-splicing fitness (ln) (37 °C): -0.759 ± 0.2

UGGGAGCAAUAUUACGGCCG
self-splicing fitness (ln) (37 °C): -1.37 ± 0.28

GCCAAGCAAUAUUACGAGCG
self-splicing fitness (ln) (30 °C): -2.34 ± 0.12 | self-splicing fitness (ln) (37 °C): -1.08 ± 0.13

CGUGAGCAAUAUUACGCAGA
self-splicing fitness (ln) (37 °C): -1.49 ± 0.38

AGGCAGCAAUAUUACGUCCG
self-splicing fitness (ln) (30 °C): -1.16 ± 0.12 | self-splicing fitness (ln) (37 °C): -0.519 ± 0.13

UGUUAGCAAUAUUACGUGAC
self-splicing fitness (ln) (30 °C): -2.93 ± 0.31 | self-splicing fitness (ln) (37 °C): -2.01 ± 0.29

UAAAAGCAAUAUUACGAUUC
self-splicing fitness (ln) (30 °C): -2.85 ± 0.17 | self-splicing fitness (ln) (37 °C): -1.02 ± 0.2

GCUUAGCAAUAUUACGCAGG
self-splicing fitness (ln) (30 °C): -1.27 ± 0.19 | self-splicing fitness (ln) (37 °C): -2.97 ± 0.27

CAUGAGCAAUAUUACGGUCA
self-splicing fitness (ln) (30 °C): -2.96 ± 0.2 | self-splicing fitness (ln) (37 °C): -2.57 ± 0.22

CAGCAGCAAUAUUACGAUUU
self-splicing fitness (ln) (30 °C): -3.59 ± 0.17 | self-splicing fitness (ln) (37 °C): -1.91 ± 0.15

UAAUAGCAAUAUUACGAGCG
self-splicing fitness (ln) (30 °C): -1.02 ± 0.1 | self-splicing fitness (ln) (37 °C): -0.261 ± 0.15

AUAAAGCAAUAUUACGGCAC
self-splicing fitness (ln) (30 °C): -0.531 ± 0.073 | self-splicing fitness (ln) (37 °C): -0.1 ± 0.11

CGGUAGCAAUAUUACGCUUA
self-splicing fitness (ln) (37 °C): -1.95 ± 0.2

CCGGAGCAAUAUUACGUAGC
self-splicing fitness (ln) (30 °C): -2.74 ± 0.31 | self-splicing fitness (ln) (37 °C): -2.04 ± 0.46

UUAGAGCAAUAUUACGGUAG
self-splicing fitness (ln) (30 °C): -1.27 ± 0.12 | self-splicing fitness (ln) (37 °C): -0.297 ± 0.14

UAUAAGCAAUAUUACGAACC
self-splicing fitness (ln) (30 °C): -2.5 ± 0.41 | self-splicing fitness (ln) (37 °C): -1.51 ± 0.32

UAUAAGCAAUAUUACGCGAG
self-splicing fitness (ln) (30 °C): -1.39 ± 0.12 | self-splicing fitness (ln) (37 °C): -1.02 ± 0.11

AGUCAGCAAUAUUACGAUGA
self-splicing fitness (ln) (30 °C): -0.22 ± 0.057 | self-splicing fitness (ln) (37 °C): -0.0826 ± 0.071

CUUGAGCAAUAUUACGCCAC
self-splicing fitness (ln) (30 °C): -2.82 ± 0.49

GAUCAGCAAUAUUACGUGAU
self-splicing fitness (ln) (30 °C): -3.23 ± 0.18 | self-splicing fitness (ln) (37 °C): -2.93 ± 0.22

UGGUAGCAAUAUUACGAGGG
self-splicing fitness (ln) (37 °C): -3.44 ± 0.33

AGUCAGCAAUAUUACGUGUU
self-splicing fitness (ln) (30 °C): -0.875 ± 0.061 | self-splicing fitness (ln) (37 °C): -0.392 ± 0.096

UGUCAGCAAUAUUACGGACG
self-splicing fitness (ln) (30 °C): -2.2 ± 0.15 | self-splicing fitness (ln) (37 °C): -1.34 ± 0.18

UUCAAGCAAUAUUACGUUCG
self-splicing fitness (ln) (30 °C): -1.96 ± 0.12 | self-splicing fitness (ln) (37 °C): -1.44 ± 0.12

GCAAAGCAAUAUUACGAAUU
self-splicing fitness (ln) (30 °C): -2.67 ± 0.15 | self-splicing fitness (ln) (37 °C): -0.942 ± 0.11

CUGCAGCAAUAUUACGCAUG
self-splicing fitness (ln) (30 °C): -2.5 ± 0.12 | self-splicing fitness (ln) (37 °C): -1.8 ± 0.14

CAACAGCAAUAUUACGACAA
self-splicing fitness (ln) (30 °C): -3.37 ± 0.21 | self-splicing fitness (ln) (37 °C): -2.29 ± 0.14

UGAGAGCAAUAUUACGGAAG
self-splicing fitness (ln) (30 °C): -3.67 ± 0.23 | self-splicing fitness (ln) (37 °C): -2.2 ± 0.31

CCGGAGCAAUAUUACGUUUC
self-splicing fitness (ln) (30 °C): -2.4 ± 0.31 | self-splicing fitness (ln) (37 °C): -2.74 ± 0.48

GUGGAGCAAUAUUACGUCGU
self-splicing fitness (ln) (30 °C): -1.65 ± 0.21 | self-splicing fitness (ln) (37 °C): -1.48 ± 0.26

AGAUAGCAAUAUUACGGCCG
self-splicing fitness (ln) (30 °C): -0.583 ± 0.13 | self-splicing fitness (ln) (37 °C): -0.128 ± 0.23

GAAAAGCAAUAUUACGAAAA
self-splicing fitness (ln) (30 °C): -2.25 ± 0.22 | self-splicing fitness (ln) (37 °C): -2.42 ± 0.17

— the supplement of paper PMC7877785
